Test: yeast display, Sf9 membrane polyspecificity reagent, FACS + sequencing; frameworks hold sequencing errors
Outline: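 A synthetic nanobody library was expressed on Saccharomyces cerevisiae BJ5465 by galactose induction for 36–48 hours. The library was stained for 1 hour at 4 °C with 10% biotinylated, detergent-solubilized Sf9 membrane reagent and enriched with streptavidin microbeads before FACS. Low and high (top ~1%) gates were set on anti-HA fluorescence for expression and streptavidin fluorescence for reagent binding, and each polyreactivity label reflects the gate of origin.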

Sequence | polyreactivity (PSR sort gate)
QVQFVESGGGLVQAGGSLRLSCAASGSTFQGYAMGWYRQAPGKERELVAAISRSGGRTYYADSVKGRFTISRDNAKNTVYLQMNSLKPEDTAVYYCAAEGHELTEGDSWGQGTQVTVSS | low polyreactivity
QVQFVESGGGLVQAGGSLRLSCAASGSTFQGYAMGWYRQAPGKERELVAAISRSGGRTYYADSVKGRFTISRDNAKNTVYLQMNSLKPEDTAVYYCAKYYWAPTGAHGGYGYWGQGTQVTVSS | low polyreactivity
QVQFVESGGGLVQSGGSLRLSCAASGSIFRAYAMGWYRPAPGKEREFVAAISRRGGSTSYADSVKGRFTISRDYAKNTVYLQMNSLKPEDTAVYYCAATYQILTTSAHDSWGQGTQVTVSS | high polyreactivity
QVQHEESGGGLVQAGGSLRLSCAASGYTFSFYAMGWSRQAPGKERELVAAISSSDGTTYYADSVKGRFTISRDNAKNTVYLQMNSLKPQDTAVYYCNTRYVRQVVGTYTLKTRYYWGQGTQVTVSS | high polyreactivity
QVQHGESGGGLVQAGGSLRLSCAASGRIFYYYAMGWYRQAPGKERELVAAITWNAGITYYADSVKGRFTISRDNAKNTVYLQMNSLKPEDSAVYYCAASRWARGRDYWGQGTQVTVSS | high polyreactivity
QVQHLESRGGLVQAGGSLRLSCAASGSIFASNAMGWYRPAPGKEREFVAAITWRTDRTYYADSVKGRYTISRDIAKNTVYLQMNSLKPEDTAVYYCNAGRRVYYYSAYYGGGYWGQGTQVTVSS | high polyreactivity
QVQHVDSGGCLVQAGGTLRLSCAASGFTLWAYAMGWYRQAPGKEREFVAVISRSDGSTYYADSVKGRFTISRENAKNTVYLQMNSLKPEDSAVYYCAAKHRGAKYDYWGQGTQVTVSS | low polyreactivity
QVQHVDSGGGLFQAAGSLRLSCAASGGTFSFYTMGWSRQGPGKERELVAAIDSTGRTNYADSVKGRFTISRDKAKNTVYLQMNSLKPEDSAVYYCSAGPPRADYDYWGQGTQVTVSS | low polyreactivity
QVQHVDSGGGLVQAGGSLRLSCAASGFIFAYNIMGWYRQAPGKERELVADISGTGSTNYADSVKGRFTISRDNAKNTVYLQMNSLKPEDTAVYYCATSGDRLVWGQGTLVTVSS | low polyreactivity
QVQHVDSGGRLVQAGGRLRLSCAASGRIITYYARGWNRQAPGKERELVAAISGRGGGTYYADSVKGRFTISRDNAKNTVYLQMNSLKPADTAVYYCNAYYSRLRYDYWGQGTQVTVSS | high polyreactivity
QVQHVESAGGLVQAAGSLRLSCAASGLSYSRYAMGWYRQAPGKERELVAAITWSGSSTYYADSVKGRFTISRDNAKNTVYLQMNSLKPEDTAVYYCAGRYGYSRGPYYRSDYWGQGTQVTVSS | high polyreactivity
QVQHVESAGGLVQEAGSLRLRCAASGSTFYSYAMGWSRQAPGKERELVAAISRSGGRTNYADSVKGRFTISRDIAKNTVYLQMNSLKPEDTAVYYCNARHYLSAYDYWGQGTQVTVSS | high polyreactivity
QVQHVESCGGLVQAGGSLRLSCAASGRIINSNDMGWYRQAPGKERELVAAISKRGGSTFYADSVKGRFTISRDNAKNTVYLQRNSLKPEDTAVYYCAADKWTYYYAVDSWGQGTQVTVSS | high polyreactivity
QVQHVESGAGLVQAGGSLRLSCAASGRTFYYYAMGWYRQAPGKERELVAAISTNGGSTSYADSVKGRFTISRDNAKNTVYLQMNSLKPEDSAVYYSAAYYRTPTDVEYDYWGQGTQVTVSS | high polyreactivity
QVQHVESGGALVQAGGSLRLSCAASGSTYYIYAMGWYRHGPGKERELVARISGSGGSTYYADSVKGRFTISRDNAKNTVYLQMNSLKPEDTAVYYCAADDIYKYYQYYAFQYFRYDYWGQGTQVTVSS | low polyreactivity
QVQHVESGGCLFQAGGILRLSCAASGIIFTYYDMGWYRQAPGKERELVAGIDYSGTSTYYADSVKGRFTISRDNAKNTVYLQMNSLKPEDTAVYYCAAVPVWVVYFSGEYYYWGQGTQVTVSS | high polyreactivity
QVQHVESGGCLVQARGSLRLSCASSGRTFDIYARGWYRHPPGKESELVAVISASGGSTYYADSVKGRFTISRDNAKNTVYLQMNSLKPEDTAVYYCAARYWFRFQYDYWGQGTQVTVSS | high polyreactivity
QVQHVESGGGIVQAGGSLRLSCAASGSIFVRYAMGWYRQAPGKERESVAAISASGSSTYYADSVKGRFTISRDNAKNTVYLQMNSLKPEDTADYYCNAVRARRFDYWGQGTQVTVSS | high polyreactivity
QVQHVESGGGIVQAGGSLRLSCAASGSIFYQYAMGWYRQSPGKERELVAASSRSGGSTYYADSVKGRFTISRHNAKNTVYLQMNSLKPEDTAVYYCAARAVRAAYDYWGQGTQVTVSS | low polyreactivity
QVQHVESGGGKVQAGGSLRLSCASSGFTIMSYAMGWYRQAPGKERELVAAISRSGGSTYYADSVKGRFTISRDKAKNTVYLQMISLKPEDTAVYYCAARSAFRKQFSRNNYWGQGSQVTVSS | high polyreactivity
QVQHVESGGGLDQAARSLRLICAASGSIFTDNGMGWYRQAPGKERELVAAISWRGGTYYADSVKGRFTISRDNAKNSVYLQMNSLKPEDTAVYYCNADPEAEGNFEYYYWGQGTQVTVSS | low polyreactivity

Sequence | polyreactivity (PSR sort gate)
QVQHVESGGGLDQAGGSLRLSCAASGITFEGYAMGWYRQAPGKERELVAAIRSSGTSTYYADSVKGRFTISRDNAKNTFYLQMISLKPEETAVYYCNRARSSYSYDYWGQGTQVTVSS | low polyreactivity
QVQHVESGGGLDQAGGSLRLSCAASGRTFSYYTMGWYRQAPGKERELVARISNRGTNTYYADSVKGRFTISRDNSKNTVYLQMNSLKPEDTAVYYCAKYYYTSIVGYDSWGQGTQVTVSS | low polyreactivity
QVQHVESGGGLDQAGGSLRLSCAASGSIFNGYAMGWYRQAPGKERELVADIRSGGSTYYADSVKGRFTISRDNAKNTVYLQMNSLKPEDTAVYYCAGDTITDGYDYWGQGTQVTVSS | low polyreactivity
QVQHVESGGGLDQAGGSLRLSCAASGSIYVGNEMGWSRQATGKETELVDTISWSGGSTYYADSVKGRFTISRDNAKNTVYLQMNSLKPEDTAVYYCAKTPYRRYRYGGYNYRTYDYWGQGTQVTVSS | low polyreactivity
QVQHVESGGGLFQAGGSLRLSCAASGQNFRPYALGWDRQAPGKERELVAAIRWSDDSTYFAVSVKGRFTILRDNAKNTVYLQLNSLKPEDTAVYYCNARWWYPTYYYWGQGSQVTVSS | high polyreactivity
QVQHVESGGGLLQAGGSLRLSCAASGFTFNANAMGWYRQAPGKERELVAVITRSGGRTYYADSVKGRFTISRDNAKNTVYLQMNSLKPEDTAVYYCNAKGWTRPPCYDYWGQGTQVTVSS | high polyreactivity
QVQHVESGGGLVQAGGILRLSCAASGFTFPAYTMGWYRQAPGKERELVAAITSSGGNTYYADSVKGRFTISRDNAKNTLCLQMNSLKPEDTAVYYCATVSVRWPSNDHVRYDYWGQGTQVTVSS | low polyreactivity
QVQHVESGGGLVQAGGNLRLSCPASGFTIYYYAMVCDRQAPGKERELVAGISKSGGITYYADSVKGRFTISRDNAKNTVYLQMNSLKPEDTAVYYCAAAEWYQFFIYRYTYEYWGQGSQVTVSS | low polyreactivity
QVQHVESGGGLVQAGGSLLLSCAASGSIFYLYAMGWYRQEPGKERELVATMSSSGGSTYYADSVKGRFTISRDNAKNTVYLQMNSLKPEDTAVYYCNADYIYYGTTYEYWGQGTQVTVSS | low polyreactivity
QVQHVESGGGLVQAGGSLRLGCPASGIIFIAYAMGWYRQAPGKERELVADISIGGSTNYADSVKGRFTISRDNAKYTVYLQMNSLKPEDTAVYYCAKRPKNKPVLGDYDHWGQGTQVTVSS | low polyreactivity
QVQHVESGGGLVQAGGSLRLICAASGFTFHLYAMGWYRQAPGKERELVASITYSGGSTYYADSVKGRFTISRDKAKNTVYLHMNSLKAEDTAFYYCNRYSSSYSYDYWGQATQVTVSS | high polyreactivity
QVQHVESGGGLVQAGGSLRLICAASGRIFLRNAMGWYRQAPGKERELVATITSRGGSTYYADAVKGRFTISRDNAKNTVYLQMNRLKPEDTAVYNCAAVPRRYRGFGYVYGGFYYWGQGTQVTVSS | low polyreactivity
QVQHVESGGGLVQAGGSLRLICAASGSTFYYNAMGWYRQAPGKERELVAAISFSGGSTYYADSVKGRFTISRDNAKNTVYLQMNSLKPDDTAVYYCNRVYYAFYVYYYSTYDYWGQGTQVTLSS | low polyreactivity
QVQHVESGGGLVQAGGSLRLSCAASASTLYRNAMGWYRQAPGKEREFVAAISWSGGSTYYADSVMGRFTISRDNAKNTVYLQMNSLKPEDTAVYYCNADTDRYWPYEYDYWGHGTQVTVSS | low polyreactivity
QVQHVESGGGLVQAGGSLRLSCAASGFIFASYTMGWYRQAPGKERELVATISRGGSTYYADSVKGRFTISRDNAKNTVYLQMNSLKPEATAVYYCATDVGKRAGYYGGVYPDFDYWGQGTQVTVSS | low polyreactivity
QVQHVESGGGLVQAGGSLRLSCAASGFIFPVNAMGWYRQAPGKERELVAAITYSTGSTYYADSVKGRFTISRDNAKNTVYLQMNSLKPEDTAVYSCAADVPPGEVVTNDYWGQGTQVTVSS | low polyreactivity
QVQHVESGGGLVQAGGSLRLSCAASGFISYFYAMGWYRQAPGKERELVPVNTQSGGSTYFADSVKGRFTISRDNAKNTVYLQMNSLKPEDTAVYYCNADTVRDYPFFSVSYYYWGQGTQVTVSS | low polyreactivity
QVQHVESGGGLVQAGGSLRLSCAASGFTFARYAMGWYRHAPGKERELVASISSSGDRTNYADSVKGRFTISRDNAKITVYLQMYSLKPEDTAVYYCNADFGYGWYLRYDYWGQGTQVTVSS | high polyreactivity
QVQHVESGGGLVQAGGSLRLSCAASGFTFTRYAMGWYRQAPGKERELVAAISRGGTTYADSVKGRFTISRDNAKNTVYLQMNSLKPEDTAVYYCNRLRYGYPQEFGYWGQGTQVTVSS | high polyreactivity
QVQHVESGGGLVQAGGSLRLSCAASGFTFVYYAMGWYRQAPGKERELVAAISRSGSRTYYADSVKGRFTISRDNAKKTVYLQMNSLKPEDTAVYYCAVAGYSPYLYRYGYWVQGTQVTVSS | high polyreactivity

From the nanobody polyreactivity screen of Harvey et al. (2022)
